This note sets out measurements from patent publication US20150139996A1.

Assay [1] concerns the target IgG1 heavy chain with CH3 construct 69 (L351D, L368E) (human) [IgG part: P01857]. Briefly: native MS (peak height); Tr. 3, 1:2:1; BC = 1025-KK with 1122-DE.
Assay [2] shares this target. Briefly: native MS (peak height); Tr. 3, 1:2:1; AB = 1337-KK with 1122-DE.
Assay [3] concerns the target IgG1 heavy chain with CH3 construct 68 (T366K, L351K) (human) [IgG part: P01857]. Briefly: native MS; combination 8 co-expressed (A: VH MF1337, B: VH MF1122).
Assay [4] concerns the target IgG1 heavy chain with CH3 construct 72 (L351D, R355D) (human) [IgG part: P01857]. The assay is described as above.
The target of assay [5] is IgG1 heavy chain with CH3 construct 69 (L351D, L368E) (human) [IgG part: P01857]. Briefly: native MS (peak height); Tr. 6, 1:1:2; BB = 1122-KK with 1122-DE.
The target is the same in assay [6]. Briefly: native MS (peak height); Tr. 1, 2:1:1; AB = 1337-KK with 1122-DE.
For assay [7] the target is unchanged. Briefly: native MS (peak height); Tr. 2, 2:1:1; AC = 1025-KK with 1337-DE.
For assay [8] the target is unchanged. Briefly: native MS (peak height); Tr. 7, 2:1:1; AA = 1337-KK with 1337-DE.
The target is the same in assay [9]. Briefly: native MS (peak height); Tr. 1, 2:1:1; AC = 1337-KK with 1025-DE.
For assay [10] the target is unchanged. Briefly: native MS (peak height); Tr. 2, 2:1:1; AB = 1122-KK with 1337-DE.
Assay [11] addresses IgG1 heavy chain with CH3 construct 63 (L351D) (human) [IgG part: P01857]. Briefly: native MS; combination 7 co-expressed (A: VH MF1337, B: VH MF1122).
For assay [12], the target named is IgG1 heavy chain with CH3 construct 68 (T366K, L351K) (human) [IgG part: P01857]. The description is as above.
The target in assay [13] is IgG1 heavy chain with CH3 construct 69 (L351D, L368E) (human) [IgG part: P01857]. Briefly: native MS (peak height); Tr. 4, 1:1:2; BC = 1122-KK with 1025-DE.
Assay [14] shares this target. Briefly: native MS (peak height); Tr. 9, 1:1; 1337-KK with 1122-DE.
Assay [15] has the same target. Briefly: native MS (peak height); transfection #11 of Table 24; AB = A/68 with B/69.
The target is the same in assay [16]. Briefly: native MS (peak height); Tr. 8, 1:1:2; CC = 1025-KK with 1025-DE.
Assay [17] shares this target. Briefly: native MS (peak height); Tr. 5, 2:1:1; AB = 1337-KK with 1122-DE.
Assay [18] shares this target. Briefly: native MS (peak height); Tr. 10, 1:1; 1337-KK with 1025-DE.
The target of assay [19] is IgG1 heavy chain with CH3 construct 68 (T366K, L351K) (human) [IgG part: P01857]. Put plainly: native MS; combination 10 co-expressed (A: VH MF1337, B: VH MF1122).
The target in assay [20] is IgG1 heavy chain with CH3 construct 74 (L351D, Y349D) (human) [IgG part: P01857]. Described as above.
In assay [21] the target is IgG1 heavy chain with CH3 construct 69 (L351D, L368E) (human) [IgG part: P01857]. Put plainly: native MS (peak height); Tr. 5, 2:1:1; AA = 1337-KK with 1337-DE.
Assay [22] has the same target.
The target is the same in assay [23]. Put plainly: native MS (peak height); Tr. 8, 1:1:2; AC = 1337-KK with 1025-DE.
Assay [24] shares this target. Put plainly: native MS (peak height); Tr. 7, 2:1:1; AC = 1337-KK with 1025-DE.
Assay [25] has as its target IgG1 heavy chain with CH3 construct 68 (T366K, L351K) (human) [IgG part: P01857]. Briefly: native MS; combination 12 co-expressed (A: VH MF1337, B: VH MF1122).
In assay [26] the target is IgG1 heavy chain with CH3 construct 69 (L351D, L368E) (human) [IgG part: P01857]. The assay is described as above.
The target is the same in assay [27]. Put plainly: native MS (peak height); Tr. 6, 1:1:2; AB = 1337-KK with 1122-DE.
Assay [28] concerns the target IgG1 heavy chain with CH3 construct 68 (T366K, L351K) (human) [IgG part: P01857]. Briefly: SDS-PAGE of protein A-purified supernatant; construct expressed alone.
The target of assay [29] is IgG1 heavy chain with CH3 construct 75 (L351D, Y349D, R355D) (human) [IgG part: P01857]. Briefly: native MS; combination 9 co-expressed (A: VH MF1337, B: VH MF1122).
Assay [30] deals with IgG1 heavy chain with CH3 construct 68 (T366K, L351K) (human) [IgG part: P01857]. The assay is described as above.
Assay [31] has the same target. Briefly: native MS; combination 11 co-expressed (A: VH MF1337, B: VH MF1122).
Assay [32] concerns the target IgG1 heavy chain with CH3 construct 71 (L351D, Y349E) (human) [IgG part: P01857]. The assay is described as above.
Assay [33] concerns the target IgG1 heavy chain with CH3 construct 69 (L351D, L368E) (human) [IgG part: P01857]. Put plainly: native MS (peak height); Tr. 4, 1:1:2; AC = 1337-KK with 1025-DE.
Assay [34] has the same target. Put plainly: native MS (peak height); Tr. 11; by a transfection error 1025-DE stood with 1337-KK instead of 1122-KK.
Assay [35] has the same target. Put plainly: native MS (peak height); Tr. 4; CC = DE-DE homodimer of 1025-DE.
For assay [36] the target is unchanged. Briefly: native MS of gel filtrated sample 1516:1337 (MF1516 on DE-side).
In assay [37] the target is IgG1 heavy chain with CH3 construct 68 (T366K, L351K) (human) [IgG part: P01857]. Briefly: batch test before the pK study; 1516:1337 (MF1516 on DE-side, MF1337 on KK-side).
Assay [38] deals with IgG1 heavy chain with CH3 construct 69 (L351D, L368E) (human) [IgG part: P01857]. Put plainly: native MS (peak height); Tr. 2; AA = DE-DE homodimer of 1337-DE.
In assay [39] the target is IgG1 heavy chain with CH3 construct 2 (K392D, K409D) (human) [IgG part: P01857]. Put plainly: native MS (peak height); transfection #9 of Table 24; crossed dimer B/69 with D/2.
Assay [40] concerns the target IgG1 heavy chain with CH3 construct 69 (L351D, L368E) (human) [IgG part: P01857]. Briefly: native MS; combination 3 co-expressed (A: VH MF1337, B: VH MF1122).
Assay [41] has the same target. Put plainly: SDS-PAGE of protein A-purified supernatant; construct expressed alone.

Like-named read-outs stand apart in the source and are kept apart here.

In the case of “IgG1 heavy chain with CH3 construct 68 (T366K, L351K) (from UniProt P01857-1)”, the Observed species (%) in assay [1] stood at 46%; in assay [2], 54%; in assay [5], 25%; in assay [6] it was 43%; in assay [7] it was 54%; in [8], 46%. For the same substance, the Observed species (%) in [9] is 57%; in assay [10], 40%; in [13], 33%; in [14] it was greater than 98%; in assay [16], 40%; in [17] it was 43%. For the same substance, the Observed species (%) was greater than 98% in assay [18]; 57% in assay [21]; 60% in assay [23]; 54% in assay [24]; 75% in assay [27]; 66% in assay [33]. Besides, the Observed species (%) in assay [34] is greater than 98%. Also, the % AA found in assay [3] turned out to be 0%; in assay [12], 0%; in [19], 1%; in [25] it was 0%; in assay [30] it was 1%; in [31], 1%. Besides, the % AB found came out at 79% in assay [4]; 77% in [11]; 95% in assay [20]; 92% in assay [26]; 93% in assay [29]; 95% in assay [32]. Also, the percent of species in the mixture in [15] turned out to be 33%; in assay [22], 30%. For the same substance, the % IgG in assay [28] is 34.7%. The substance also had a % half molecule in assay [28] of 65.3%.
Consider “IgG1 heavy chain with CH3 construct 69 (L351D, L368E) (from UniProt P01857-1)”, for which the values for the Observed species (%) in [35] and in [38] were 1% and 6%, respectively. In assay [36], this substance displayed a percent of species in the sample of 2%. This substance had a percent bispecific IgG in assay [37] greater than 90%. The percent of species in the mixture in assay [39] amounted to 3%. The % BB found in assay [40] and in assay [26] was 0% throughout. In [41], this substance showed a % IgG of 83.7%. The same substance returned a % half molecule in assay [41] of 16.3%.
